Experimental data published in paper PMC2409434.

Tested on: ArgR (arginine repressor) (Escherichia coli)
Experiment: EMSA
Conditions: EMSA essentially as Burke et al. 1994 with 1 mM L-arginine; ArgR dilution buffer 20 mM Tris-HCl pH 8.2, 20 mM MgCl2, 150 mM NaCl, 5 mM DTT, 1 ug/ml BSA, 0.01% …

Substance	K half [nM]
cer 190 bp Arg-box fragment	10
loxP 198 bp fragment (P1 putative Arg-box)	> 200
